For one substance, stoichiometry N results are on record in publication PMC11961569.

In the test the target is EfpA^EM (BRIL-P171R EfpA, Mycobacterium tuberculosis efflux protein A) (not stated | Mycobacterium tuberculosis) (UniProt P9WJY4). Briefly: cryo-EM structure; EfpA-EM mixed with anti-BRIL Fab and anti-Fab elbow Nb (1:1.5:2), separated on Superose 6 in 50 mM Tris-Cl pH 7.5, 300 mM NaCl, 0.02% GDN; apo sample gave antiparallel (dominant) and parallel dimers; samples with BRD-8000.3 or BRD-9327 gave antiparallel dimers.

As a reminder, the stoichiometry N is the number of molecules, sites or subunits per partner or assembly. “EfpA^EM (BRIL-P171R EfpA, Mycobacterium tuberculosis efflux protein A) (from UniProt P9WJY4 49-530)” showed a stoichiometry N of 2.
